Assay results reported in patent US20190359674A1.
Positions of bridges follow the written chain, without caps; N, C: chain ends. Non-standard residues stand in square brackets, D forms with d. Dap = NC[C@H](N)C(=O)O

Target: T1, recombinant human MAS1 receptor (human), P04201
T1 chain: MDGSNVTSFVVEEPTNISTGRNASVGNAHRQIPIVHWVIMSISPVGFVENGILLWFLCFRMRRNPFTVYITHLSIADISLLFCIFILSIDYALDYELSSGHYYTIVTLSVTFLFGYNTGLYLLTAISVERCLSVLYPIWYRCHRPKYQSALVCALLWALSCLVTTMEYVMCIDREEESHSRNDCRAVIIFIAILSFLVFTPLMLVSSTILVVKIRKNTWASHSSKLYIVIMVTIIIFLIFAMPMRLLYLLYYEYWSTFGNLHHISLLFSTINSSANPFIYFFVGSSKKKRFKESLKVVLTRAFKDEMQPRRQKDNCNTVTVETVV
Experiment: cell-based or functional assay

- activity in the MAS1 activation (NO release) assay relative to peptide AT1-7, at 10 nM (% of AT1-7 activity): 90
B1: cyclotide MCo-AT1-7 (designed binder)
chain: GGVCPKILQRCRRDSDCPGACICRGNGYCGSG[Dap]RVYIHE-OH
modifications: disulfide 11-23, 17-29, 4-21; lactam N-39 (inferred); also: Gly32 joined to Dap33 β-amino group by isopeptide bond, Dap33 α-amino group free
